The labels stand for the following.
B1: His-CAL1(1-160) [Drosophila melanogaster] / CENP-A(101-225)-H4 [Drosophila melanogaster] (parent complex)
chain 1: MANAVVDEETLEAMVYERSKAWSSKMADFASLEDGMEIDVAEFDNLFHGEDEDPDLDDVAKEAVEDNVPDEAKLEMGHINATSVTELTLILCANEDNEAKAEIEEILNQTVPVVEEHKRKWREAGLDRILDTFDEKQIEHHVGRWMRRHNSVYLEASPPK
chain 2: QQESKTRAAGPVAAQNQTRRRKAANPMSRAKRMDREIRRLQHHPGTLIPKLPFSRLVREFIVKYSDDEPLRVTEGALLAMQESCEMYLTQRLADSYMLTKHRNRVTLEVRDMALMAYICDRGRQF
chain 3: not shown
B2: CAL1-V5 (in U2OS cells) [Drosophila melanogaster] / CENP-A-GFP-LacI (in U2OS cells) [Drosophila melanogaster] (parent complex)
chain 1: MANAVVDEETLEAMVYERSKAWSSKMADFASLEDGMEIDVAEFDNLFHGEDEDPDLDDVAKEAVEDNVPDEAKLEMGHINATSVTELTLILCANEDNEAKAEIEEILNQTVPVVEEHKRKWREAGLDRILDTFDEKQIEHHVGRWMRRHNSVYLEASPPKYLPPHHNSISDESDESMHSIDTARYIQQSRRRNAHMTNKNMTTIKMYRKHSHKRDELRAKYAYGDEQEHRHHMQAVLLRRRERERQLAYLASTPMQCVYSSGHHMRRKNLRKRRINSWMFDSASSSEEDTSFGGCDCHSCRRHYALSRSVYQSCPYGRGQREYHHRQMASRTMHTMRRQHTFDMEMDLRPRLPENECSCCNSDRLCSNVIHIANSSTEEWVVENRSNHLTQETQEKTRKQKHQPMDARKVSHQPVCSKGHEQKPLSSKATSVSKLVLSKEKYMQMFDSESSDEDNALAKKGLLCCSDKKKGMTFPTPNAAGKITHPTSSAKKAIRKEARPNGLAQIQEEGPTATNSPIESTYLPVAHMKSVSIDGSSGTSATFESPAKKAPKRGIRETSPLNGNELQQLISTIPIADEKASSLMEKVDNCIGRESFDDRNKDFMHMENSSTKTAVEKSTKQKRVSGKKSEIPKSIITNNEILEKNSTETLSEKQVAAKAKKQSVRKTGATGKPSTSRLKKSEKTKTTSSVTSTSKLEQVREEESDVSSEVLAKPKPQCSTTASILKQGGDGASNSEDDLQIALAMSKATYKEEQQKRKKTKREPSNKQPQSPAEKSMTVFNNQSVACNSTALANDTACYRVLPKRRGVKRAAAVSTTEEKTATNSSSSPTSSLEEMGSPTGGDPDCTVVTSTTGCEPPASERQEIPATIKITKRGILLHSPSAPEGASFTLTEQGLGKIIGERWARKYLKYHIGSRSFDSRHSVYYQPTPQLAAALSAPQDAQNIGNISGSSASDDDIFEQINRYGTVYSILENNSGDK
chain 2: MPRHSRAKRAPRPSANNSKSPNDDDTAFRSPEPEDGTDYGLEFTTSQLTLQDNNRRSSTLRRDAGRRQPAARDSSTSGEEEDQENRYPTTRSPQTRRMTVQQESKTRAAGPVAAQNQTRRRKAANPMSRAKRMDREIRRLQHHPGTLIPKLPFSRLVREFIVKYSDDEPLRVTEGALLAMQESCEMYLTQRLADSYMLTKHRNRVTLEVRDMALMAYICDRGRQF
B3: CAL1-HA (in S2 cells) [Drosophila melanogaster] / GFP-LacI-CENP-C (in S2 cells) [Drosophila melanogaster] (parent complex)
chain 1: B2 chain 1
chain 2: MSKPQNNDTLELDDILSQPVKDKERFAAFMMRKLAENKPAQNDNLFGNFKLDFDLDFEVPLIKKSQAKPKSKLPEVQPLGELVSKNSAATEKVNEPPVDQAPNENVPPRRSPTLSPNNRRSMRRSGNVPGSDKLRRHAIRRRSRSCGRQLLPEFEETVNLTRSISSPVNFLPEISSTPCTEKQKEEVAKNTTRVETDKPAEKPMELSQEPEPENPLQTKVTSPARNPILAAEIEQICKERQSSFHKNVLQLDYSGRAPYSRPPTPSSPSVAGLRRTYTMEKGPAPGQLLLSPSHRYDTPSKMPVVKAKRFNQELMVPDTPERQSHDPAWQSEPQPEFVVPETQPQDLGELVQTLSRSAISPIVVINTSNSNRSVRRDAVAMKSVPTSPVTALSSPPIAPSPRRSAAASPQKSIAQLPRVEENMDAIMTDDESDEHPSTVPLNLAPSGGNTTRQRRLRSSNRARATIESQESSMRLLNLHKSVNAKKSKPRKTAIPLNKAPSAPINGEQFARELTRMSNYEILDLRKRNSLNEIYPLNGHRNHRSEKLILEEEIQRELLRRNLMDEAEGLPKQQSSDDSNEDYIPVPPKTQSLRTKSNDRSQGRGRPRSTRRDLPMTTELVNYLGLSQTLETRRKSSKDGKRCLYTKGSSDHEDNDSLSPVKLPRLSKSIQIVPPPPVSLRYSQSLQNLPCSGKFDFDNVVMAAPPDFHDSVNSDAIEIAPPPPEYVVNTRGRSTSGRKSNKNDLVLPPPGYEGGQEEEHDERPSQPRCTAKELQQSTQNGRRAMENELVPPPIEYVEEENRNNEQSRRSTKNGNLVDRNTHNAVEYCEPPEPPEYDDSDHGQASILRRSGKKLQHSKQSVQKSNKEQIIAPSYENNEDYDSDEEPIYNEEYGKEESQNKNVTRRKSDKDEMASHTLECIEGPDPNWNSSCNKQNRNHQNASKSKENDKLANRSSKSQKLSNPRQNAVGTEKSVALSNRGEECTEKSSDVMESLRVNTPTPPIDQNSDDVPSRNPSPSRTLLSDDVPSTSRAALEFLQRSQNMSKSRPPDESSADVVFKKPLAPAPRAKSKKGKSEVDKLKLAKMPVEAEELNTTGIRRSKRGQVPLQMSWCHTMDPSKFNFMSGFIEPRSKNSKTKKGNLSKAKKASATKPKPTVEKNLPDNRGPLCSSTPRISEKLPGAIPHSESLGLSTLTWEETEVQAEAEKVPKKRGRPKKAVGGVQTDTEAEPEPEPEPMISSVAPLTSDQEEPDVPDEQAPYTEAALGPVVFSTPLRDEQEEASTKLMQWLRGVGDAPPSASMSDENASVSSANELIFCQVDGIDYAFYNTKEKAMLGYMRFKPYQKRSMKQAKVHPLKLLVQFGEFNVETLAVGEEKEVHSVLRVGDMIEIDRGTRYSIQNAIDKVSVLMCIRS

The variants in one experiment derive from B1. Nature of the experiment: Ni-NTA pull-down, band intensity quantification; parent: 4.1; read off a plot.
Regarding chain 2 S54Q, chain 2 M86A, the response is ~2.9 ratio CENP-A101-225/H4:CAL11-160.

chain 2 Q90G: the response is ~2.8 ratio CENP-A101-225/H4:CAL11-160.

As for chain 2 M86A, the response is ~3.6 ratio CENP-A101-225/H4:CAL11-160.

chain 2 S54Q: the response is ~3.5 ratio CENP-A101-225/H4:CAL11-160.

For chain 2 S54Q, chain 2 M86A, chain 2 Q90G, the response is ~0.85 ratio CENP-A101-225/H4:CAL11-160.

The variants in a further experiment derive from B1. Nature of the experiment: Ni-NTA pull-down, band intensity quantification; parent: 3; read off a plot.
For the variant chain 1 F29R, the response was ~2.6 ratio CENP-A101-225/H4:CAL11-160.

As to chain 1 F29A, the response was ~3.2 ratio CENP-A101-225/H4:CAL11-160.

As to chain 1 W22A, chain 1 F29A, the response was ~0.38 ratio CENP-A101-225/H4:CAL11-160.

chain 1 W22R, chain 1 F29R: the response is ~0.42 ratio CENP-A101-225/H4:CAL11-160.

Consider chain 1 F43R, for which the response was ~1.8 ratio CENP-A101-225/H4:CAL11-160.

Take chain 1 W22R: the response is ~0.7 ratio CENP-A101-225/H4:CAL11-160.

Variants of B2 are the subject of another experiment. Nature of the experiment: LacO/LacI tethering assay in U2OS cells (fluorescence intensity of CAL1-V5 at the tethering site); parent: 1.1e+03; read off a plot.
chain 1 W22R, chain 1 F29R: the response is approximately 20 a.u.

For the variant chain 1 W22A, chain 1 F29A, the response is approximately 110 a.u.

Variants of B3 are the subject of a further experiment. Nature of the experiment: LacO/LacI tethering assay in U2OS cells (fluorescence intensity of CAL1-V5 at the tethering site); parent: 2.1e+03; read off a plot.
In the case of chain 2 F1324R, the response is approximately 300 a.u.

In the case of chain 2 L1357E, chain 2 M1407E, the response is approximately 490 a.u.

In the next experiment the parent is B3. Nature of the experiment: LacO/LacI tethering assay in Drosophila S2 cells (fluorescence intensity of CAL1-HA at the tethering site); parent: 650; read off a plot.
For the variant chain 2 F1324R, the response was approximately 35 a.u.

Turning to chain 2 L1357E, chain 2 M1407E, the response was approximately 60 a.u.

In the next experiment the parent is B3. Nature of the experiment: LacO/LacI tethering assay in U2OS cells (fluorescence intensity of CAL1-V5 at the tethering site); parent: 2.1e+03; read off a plot. The source holds these as a separate data set.
Consider chain 1 I900R, chain 1 K907A, chain 1 Y908A, for which the response was approximately 300 a.u.

In a further experiment the parent is B3. Nature of the experiment: LacO/LacI tethering assay in Drosophila S2 cells (fluorescence intensity of CAL1-HA at the tethering site); parent: 650; read off a plot. This is another data set of the same source.
Turning to chain 1 I900R, chain 1 K907A, chain 1 Y908A, the response is approximately 12 a.u.
